Measured values reported in patent US20080050387A1 (published 2008).

Key:
[1] = target: T1, testicular receptor 4 (TR4) (Homo sapiens (Human), UniProt P49116 1-596, limits assumed); test: CytoTrap Sos yeast two-hybrid, growth of cdc25H on SD/Gal(-LU) at 37° C
T1 construct: hSos fusion (pSos-TR4) in yeast; also called pSos-TR4
T1 sequence: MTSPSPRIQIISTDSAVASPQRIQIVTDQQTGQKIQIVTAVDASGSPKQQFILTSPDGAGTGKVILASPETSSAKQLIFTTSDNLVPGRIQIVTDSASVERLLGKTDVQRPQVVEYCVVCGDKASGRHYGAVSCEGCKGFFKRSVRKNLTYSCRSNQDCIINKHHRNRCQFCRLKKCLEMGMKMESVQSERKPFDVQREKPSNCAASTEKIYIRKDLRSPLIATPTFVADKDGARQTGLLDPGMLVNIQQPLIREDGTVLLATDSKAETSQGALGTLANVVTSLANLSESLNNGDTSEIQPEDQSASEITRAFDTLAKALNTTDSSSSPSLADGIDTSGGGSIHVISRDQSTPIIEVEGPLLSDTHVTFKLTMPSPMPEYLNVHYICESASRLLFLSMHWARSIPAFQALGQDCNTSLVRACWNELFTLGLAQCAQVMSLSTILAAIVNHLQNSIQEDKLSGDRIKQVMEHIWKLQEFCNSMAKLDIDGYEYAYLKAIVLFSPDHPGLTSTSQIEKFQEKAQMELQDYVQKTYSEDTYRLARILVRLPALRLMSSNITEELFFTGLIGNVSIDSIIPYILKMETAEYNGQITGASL
Experimental: (§1) The bait and library constructs were co-transformed into yeast strain cdc25H. […] Only the clones that grow out on SD/Gal (−LU) plates but not on SD/Glu (−LU) plates at 37° C. are interaction positive ones.

ARA70 = target: T2, ARA70 (UniProt Q13772 1-614, limits assumed); test: as above
T2 construct: also called pSos-ARA70; pSos-APA70
T2 sequence (looked up): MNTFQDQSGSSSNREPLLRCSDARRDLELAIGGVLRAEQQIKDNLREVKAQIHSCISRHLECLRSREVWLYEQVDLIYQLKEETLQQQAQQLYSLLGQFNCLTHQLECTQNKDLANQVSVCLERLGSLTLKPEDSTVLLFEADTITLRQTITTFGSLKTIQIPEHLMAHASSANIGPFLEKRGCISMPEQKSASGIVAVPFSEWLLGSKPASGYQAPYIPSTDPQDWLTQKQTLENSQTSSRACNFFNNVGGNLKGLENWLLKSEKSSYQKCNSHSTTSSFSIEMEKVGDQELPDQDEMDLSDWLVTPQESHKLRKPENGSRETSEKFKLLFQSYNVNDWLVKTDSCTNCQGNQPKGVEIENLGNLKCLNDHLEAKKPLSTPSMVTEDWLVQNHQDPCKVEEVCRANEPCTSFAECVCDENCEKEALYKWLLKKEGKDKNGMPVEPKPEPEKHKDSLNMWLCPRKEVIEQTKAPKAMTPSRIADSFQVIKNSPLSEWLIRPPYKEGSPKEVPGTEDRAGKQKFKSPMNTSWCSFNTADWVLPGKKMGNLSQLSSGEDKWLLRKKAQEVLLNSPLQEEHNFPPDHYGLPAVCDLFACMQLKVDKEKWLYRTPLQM
Experimental: as §1

binding result [1]: no binding
binding result (ARA70): no binding
B1: ARA67 clone of the CytoTrap screen, amino acids 20-585 of PAT1 (pMyr-ARA67) (other)
chain: AVVDNYIRSRRDIRSLPENIQFDVYYKLYQQGRLCQLGSEFCELEVFAKVLRALDKRHLLHHCFQALMDHGVKVASVLAYSFSRRCSYIAESDAAVKEKAIQVGFVLGGFLSDAGWYSDAEKVFLSCLQLCTLHDEMLHWFRAVECCVRLLHVRNGNCKYHLGEETFKLAQTYMDKLSKHGQQANKAALYGELCALLFAKSHYDEAYKWCIEAMKEITAGLPVKVVVDVLRQASKACVVKREFKKAEQLIKHAVYLARDHFGSKHPKYSDTLLDYGFYLLNVDNICQSVAIYQAALDIRQSVFGGKNIHVATAHEDLAYSSYVHQYSSGKFDNALFHAERAIGIITHILPEDHLLLASSKRVKALILEEIAIDCHNKETEQRLLQEAHDLHLSSLQLAKKAFGEFNVQTAKHYGNLGRLYQSMRKFKEAEEMHIKAIQIKEQLLGQEDYEVALSVGHLASLYNYDMNQYENAEKLYLRSIAIGKKLFGEGYSGLEYDYRGLIKLYNSIGNYEKVFEYHNVLSNWNRLRDRQYSVTDALEDVSTSPQSTEEVVQSFLISQNVEGPSC
notes: The clone matched the DNA encoding aa 20-585 of PAT1 at 99.6% identity; also called pMyr-ARA67/PAT1
